Source: IntAct's records for PubMed 15558030

B1: Proto-oncogene vav (Homo sapiens), P15498 (parent)
chain: MELWRQCTHWLIQCRVLPPSHRVTWDGAQVCELAQALRDGVLLCQLLNNLLPHAINLREVNLRPQMSQFLCLKNIRTFLSTCCEKFGLKRSELFEAFDLFDVQDFGKVIYTLSALSWTPIAQNRGIMPFPTEEESVGDEDIYSGLSDQIDDTVEEDEDLYDCVENEEAEGDEIYEDLMRSEPVSMPPKMTEYDKRCCCLREIQQTEEKYTDTLGSIQQHFLKPLQRFLKPQDIEIIFINIEDLLRVHTHFLKEMKEALGTPGAANLYQVFIKYKERFLVYGRYCSQVESASKHLDRVAAAREDVQMKLEECSQRANNGRFTLRDLLMVPMQRVLKYHLLLQELVKHTQEAMEKENLRLALDAMRDLAQCVNEVKRDNETLRQITNFQLSIENLDQSLAHYGRPKIDGELKITSVERRSKMDRYAFLLDKALLICKRRGDSYDLKDFVNLHSFQVRDDSSGDRDNKKWSHMFLLIEDQGAQGYELFFKTRELKKKWMEQFEMAISNIYPENATANGHDFQMFSFEETTSCKACQMLLRGTFYQGYRCHRCRASAHKECLGRVPPCGRHGQDFPGTMKKDKLHRRAQDKKRNELGLPKMEVFQEYYGLPPPPGAIGPFLRLNPGDIVELTKAEAEQNWWEGRNTSTNEIGWFPCNRVKPYVHGPPQDLSVHLWYAGPMERAGAESILANRSDGTFLVRQRVKDAAEFAISIKYNVEVKHIKIMTAEGLYRITEKKAFRGLTELVEFYQQNSLKDCFKSLDTTLQFPFKEPEKRTISRPAVGSTKYFGTAKARYDFCARDRSELSLKEGDIIKILNKKGQQGWWRGEIYGRVGWFPANYVEEDYSEYC
partner: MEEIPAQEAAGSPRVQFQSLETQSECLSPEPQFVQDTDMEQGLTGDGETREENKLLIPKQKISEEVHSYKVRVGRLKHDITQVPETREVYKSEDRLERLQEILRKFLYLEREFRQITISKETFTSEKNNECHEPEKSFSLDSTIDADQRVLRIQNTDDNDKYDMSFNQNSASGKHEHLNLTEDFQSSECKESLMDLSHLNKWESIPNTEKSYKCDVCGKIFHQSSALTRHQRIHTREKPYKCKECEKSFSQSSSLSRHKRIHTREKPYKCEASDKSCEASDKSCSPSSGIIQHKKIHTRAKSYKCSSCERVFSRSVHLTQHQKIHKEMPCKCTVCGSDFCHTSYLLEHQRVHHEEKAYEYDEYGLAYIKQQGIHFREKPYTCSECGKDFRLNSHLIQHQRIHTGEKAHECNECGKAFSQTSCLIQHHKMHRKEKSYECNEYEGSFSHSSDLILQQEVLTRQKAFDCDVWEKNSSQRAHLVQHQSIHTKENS

Variants of: B1
Conditions: with zn655_human ZNF655, Q8N720

Row | effect of a mutation on the interaction | Variant
1 | decreasing interaction | P833L
2 | decreasing interaction | Y836F
